Data published in US20210388087A1.
Substitutions are numbered along the chain they refer to. Names and notes keep the numbering of the source.

B1: H183/L072 VL H27dA (antibody, name in Kabat numbering, V domains shown)
VH: QVQLVESGGGLVQPGRSLRLSCAASGFTFSNAWMHWVRQAPGKGLEWVAQIKDKGNAYAAYYAPSVKGRFTISRDDSKNSIYLQMNSLKTEDTAVYYCHYVHYASASTVLPAFGVDAWGQGTTVTVSS
VL: DIVMTQSPLSLPVTPGEPASISCQASQELVAMNRNTYLHWYQQKPGQAPRLLIYKVSNRFPGVPDRFSGSGSGTDFTLKISRVEAEDVGVYYCAQGTSVPFTFGQGTKLEIK
B2: H183/L072 VL H27dI (antibody, name in Kabat numbering, V domains shown)
VH: B1 VH
VL: B1 VL with A31I
B3: H183/L072 VL N28I (antibody, name in Kabat numbering, V domains shown)
VH: B1 VH
VL: B1 VL with A31H, N33I
B4: H183/L072 VL Y32I (antibody, name in Kabat numbering, V domains shown)
VH: B1 VH
VL: B1 VL with A31H, Y37I
B5: H183/L072 VL L33I (antibody, name in Kabat numbering, V domains shown)
VH: B1 VH
VL: B1 VL with A31H, L38I
B6: H183/L072 VL H34I (antibody, name in Kabat numbering, V domains shown)
VH: B1 VH
VL: B1 VL with A31H, H39I
B7: H183/L072 VL A25L (antibody, name in Kabat numbering, V domains shown)
VH: B1 VH
VL: B1 VL with A25L, A31H
B8: H183/L072 VH Y55R (antibody, name in Kabat numbering, V domains shown)
VH: B1 VH with Y58R
VL: B1 VL with A31H
B9: H183/L072 VH W33F (antibody, name in Kabat numbering, V domains shown)
VH: B1 VH with W33F
VL: B1 VL with A31H
B10: H183/L072 VH I51F (antibody, name in Kabat numbering, V domains shown)
VH: B1 VH with I51F
VL: B1 VL with A31H
B11: H183/L072 VH K52F (antibody, name in Kabat numbering, V domains shown)
VH: B1 VH with K52F
VL: B1 VL with A31H
B12: H183/L072 VH D52aF (antibody, name in Kabat numbering, V domains shown)
VH: B1 VH with D53F
VL: B1 VL with A31H
B13: H183/L072 VH N53F (antibody, name in Kabat numbering, V domains shown)
VH: B1 VH with N56F
VL: B1 VL with A31H
B14: H183/L072 VH A56F (antibody, name in Kabat numbering, V domains shown)
VH: B1 VH with A59F
VL: B1 VL with A31H
B15: H183/L072 VH A32W (antibody, name in Kabat numbering, V domains shown)
VH: B1 VH with A32W
VL: B1 VL with A31H
B16: H183/L072 VH M34W (antibody, name in Kabat numbering, V domains shown)
VH: B1 VH with M34W
VL: B1 VL with A31H
B17: H183/L072 VH H35W (antibody, name in Kabat numbering, V domains shown)
VH: B1 VH with H35W
VL: B1 VL with A31H
B18: H183/L072 VH I51W (antibody, name in Kabat numbering, V domains shown)
VH: B1 VH with I51W
VL: B1 VL with A31H
B19: H183/L072 VH K52W (antibody, name in Kabat numbering, V domains shown)
VH: B1 VH with K52W
VL: B1 VL with A31H
B20: H183/L072 VH D52aW (antibody, name in Kabat numbering, V domains shown)
VH: B1 VH with D53W
VL: B1 VL with A31H
B21: H183/L072 VH N53W (antibody, name in Kabat numbering, V domains shown)
VH: B1 VH with N56W
VL: B1 VL with A31H
B22: H183/L072 VH Y55W (antibody, name in Kabat numbering, V domains shown)
VH: B1 VH with Y58W
VL: B1 VL with A31H
B23: H183/L072 VH A57W (antibody, name in Kabat numbering, V domains shown)
VH: B1 VH with A60W
VL: B1 VL with A31H
B24: H183/L072 VH S99P (antibody, name in Kabat numbering, V domains shown)
VH: B1 VH with S105P
VL: B1 VL with A31H
B25: H183/L072 VH S100aP (antibody, name in Kabat numbering, V domains shown)
VH: B1 VH with S107P
VL: B1 VL with A31H
B26: H183/L072 VH T100bP (antibody, name in Kabat numbering, V domains shown)
VH: B1 VH with T108P
VL: B1 VL with A31H
B27: H183/L072 VH V100cP (antibody, name in Kabat numbering, V domains shown)
VH: B1 VH with V109P
VL: B1 VL with A31H
B28: H183/L072 VH L100dP (antibody, name in Kabat numbering, V domains shown)
VH: B1 VH with L110P
VL: B1 VL with A31H
B29: H183/L072 VH F100gP (antibody, name in Kabat numbering, V domains shown)
VH: B1 VH with F113P
VL: B1 VL with A31H
B30: H183/L072 VH G100hP (antibody, name in Kabat numbering, V domains shown)
VH: B1 VH with G114P
VL: B1 VL with A31H
B31: H183/L072 VH V100iP (antibody, name in Kabat numbering, V domains shown)
VH: B1 VH with V115P
VL: B1 VL with A31H
B32: H183/L072 VH D101P (antibody, name in Kabat numbering, V domains shown)
VH: B1 VH with D116P
VL: B1 VL with A31H
B33: H183/L072 VH A102P (antibody, name in Kabat numbering, V domains shown)
VH: B1 VH with A117P
VL: B1 VL with A31H

Molecular target: Human CD3eg linker (human)
Assay: SPR; fold vs parent H183/L072

Chain of Human CD3eg linker (human) (chain, as listed by the source limits assumed): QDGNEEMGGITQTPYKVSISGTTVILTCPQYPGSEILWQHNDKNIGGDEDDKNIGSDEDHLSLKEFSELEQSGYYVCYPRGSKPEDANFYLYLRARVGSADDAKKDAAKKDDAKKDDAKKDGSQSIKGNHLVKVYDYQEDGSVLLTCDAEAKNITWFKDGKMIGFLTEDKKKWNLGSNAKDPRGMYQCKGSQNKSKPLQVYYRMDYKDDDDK

Fold change of affinity, 0 fold:
B1
B2
B3
B4
B5
B6
B7

Molecular target: Human CD137 ECD (human)
Assay: single mutant vs template dBBDu183H

Chain of Human CD137 ECD (human) (chain, as listed by the source limits assumed): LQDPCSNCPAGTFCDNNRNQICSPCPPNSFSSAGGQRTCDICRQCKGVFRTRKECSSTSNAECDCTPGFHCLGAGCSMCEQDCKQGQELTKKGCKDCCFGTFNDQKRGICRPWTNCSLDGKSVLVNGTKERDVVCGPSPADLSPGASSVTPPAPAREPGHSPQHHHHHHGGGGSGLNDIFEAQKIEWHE

Fold change of affinity, 0 fold:
B8
B9
B10
B11
B12
B13
B14
B15
B16
B17
B18
B19
B20
B21
B22
B23
B24
B25
B26
B27
B28
B29
B30
B31
B32
B33
